To fix the notation:
B1: Hairpin Ribozyme (parent)
chain: GUCCUCUUUCACGUGCGCGUGAAAGAGAGAAGUGAACCAGAGAAACACACGUUGUGGUAUAUUACCUGGUA

The data set covers variants of B1. In words: self-cleavage, relative activity (ratio to wild type); higher = more cleavage; co-transcriptional.
Take GUCCUCUUUCACGUGCGCGUGAAAGAGAGAAGUCAACCAGAGAAACACCCGUUGUGGUAUAUUACCUGGUA: the self-cleavage was determined as 0.186.
With GUCCUCUUUCACGUGCGCGUGAAAGAGAGAAGUCAACCAGAGAAACACUCGUUGUGGUAUAUUACCUGGUA the figure was 0.743.
With GUCCUCUUUCACGUGCGCGUGAAAGAGAGAAGUAAACUAGAGAAACACACGUUGUGGUAUAUUACCUGGUA the figure was 0.655; with GUCCUCUUUCACGUGCGCGUGAAAGAGAGAAGUCUACCAGAGAAACACACGUUGUGGUAUAUUACCUGGUA, 1.61; with GUCCUCUUUCACGUGCGCGUGAAAGAGAGAAGUAAACCCGAGAAACACACGUUGUGGUAUAUUACCUGGUA, 0.456.
For the variant GUCCUCUUUCACGUGCGCGUGAAAGAGAGAAGUAAACCGGAGAAACACACGUUGUGGUAUAUUACCUGGUA, the self-cleavage was 0.768.
Consider GUCCUCUUUCACGUGCGCGUGAAAGAGAGAAGUAAACCUGAGAAACACACGUUGUGGUAUAUUACCUGGUA, for which the self-cleavage was 0.304.
With GUCCUCUUUCACGUGCGCGUGAAAGAGAGAAGUAAACCAGAGAAACACACGUUGUAGUAUAUUACCUGGUA, the self-cleavage stood at 0.252.
As for GUCCUCUUUCACGUGCGCGUGAAAGAGAGAAGUCAACCAGAGAAACACACGUUGUGUUAUAUUACCUGGUA, the figure is 0.96; as for GUCCUCUUUCACGUGCGCGUGAAAGAGAGAAGUCAACCAGAGAAACACACGUUGUGAUAUAUUACCUGGUA, 0.427.
As for GUCCUCUUUCACGUGCGCGUGAAAGAGAGAAGUAAACCAGAGAAACACACGUUGUGGUGUAUUACCUGGUA, the self-cleavage turned out to be 0.2.
Consider GUCCUCUUUCACGUGCGCGUGAAAGAGAGAAGGGAACCAGAGAAACACACGUUGUAGUAUAUUACCUGGUA, for which the self-cleavage is 0.221.
Take GUCCUCUUUCACGUGCGCGUGAAAGAGAGAAGUAAACCAGAGAAAAACACGUUGUGGUAUAUUACCUGGUA: the self-cleavage was 0.198.
For the variant GUCCUCUUUCACGUGCGCGUGAAAGAGAGAAGGGAACCAGAGAAACACACGUUGUGGUAUAUUACCGGGUA, the self-cleavage was 0.0324.
With GUCCUCUUUCACGUGCGCGUGAAAGAGAGAAGUAAACCAGAGAAACACACCUUGUGGUAUAUUACCUGGUA, the self-cleavage was 1.15.
In the case of GUCCUCUUUCACGUGCGCGUGAAAGAGAGAAGUAAACCAGAGAAACACACAUUGUGGUAUAUUACCUGGUA, the self-cleavage stood at 1.28.
In the case of GUCCUCUUUCACGUGCGCGUGAAAGAGAGAAGUAAACCAGAGAAACACACGUUGUGGUAUAUUACCUGGUU, the self-cleavage turned out to be 1.02.
With GUCCUCUUUCACGUGCGCGUGAAAGAGAGAAGUCAACCAGAGAAACACACCUUGUGGUAUAUUACCUGGUA the figure was 1.44.
Consider GUCCUCUUUCACGUGCGCGUGAAAGAGAGAAGUCAACCAGAAAAACACACGUUGUGGUAUAUUACCUGGUA, for which the self-cleavage came to 0.968.
Regarding GUCCUCUUUCACGUGCGCGUGAAAGAGAGAAGUCAACCAGACAAACACACGUUGUGGUAUAUUACCUGGUA, the self-cleavage was 0.907.
In the case of GUCCUCUUUCACGUGCGCGUGAAAGAGAGAAGGGAACCAGAGAAACACACGUAGUGGUAUAUUACCUGGUA, the self-cleavage was 0.138.
On to GUCCUCUUUCACGUGCGCGUGAAAGAGAGAAGUCAACCAGAGAAAUACACGUUGUGGUAUAUUACCUGGUA, for which the self-cleavage is 0.109.
With GUCCUCUUUCACGUGCGCGUGAAAGAGAGAAGGGAACCAGAGAAACACACGUUGUGUUAUAUUACCUGGUA, the self-cleavage was determined as 0.2.
On to GUCCUCUUUCACGUGCGCGUGAAAGAGAGAAGUCAACCAGAGAAACACACGUUGUGGUAUAUUAACUGGUA, for which the self-cleavage came out at 1.45.
As for GUCCUCUUUCACGUGCGCGUGAAAGAGAGAAGUCAACCAGAGAAACCCACGUUGUGGUAUAUUACCUGGUA, the figure is 1.38.
For GUCCUCUUUCACGUGCGCGUGAAAGAGAGAAGGGAACCAGAGAAACACACGUUGUGGUAUAUUACCUGGGA, the self-cleavage amounted to 0.111.
Regarding GUCCUCUUUCACGUGCGCGUGAAAGAGAGAAGUCAACCAGAGAAACAAACGUUGUGGUAUAUUACCUGGUA, the self-cleavage is 0.411.
Consider GUCCUCUUUCACGUGCGCGUGAAAGAGAGAAGUCAACCAGAGAAACAUACGUUGUGGUAUAUUACCUGGUA, for which the self-cleavage worked out at 0.572.
Consider GUCCUCUUUCACGUGCGCGUGAAAGAGAGAAGUAAACCAGCGAAACACACGUUGUGGUAUAUUACCUGGUA, for which the self-cleavage was 0.826.
For the variant GUCCUCUUUCACGUGCGCGUGAAAGAGAGAAGUAAACCAGAGAAACACACGUUGUGAUAUAUUACCUGGUA, the self-cleavage turned out to be 0.207.
As for GUCCUCUUUCACGUGCGCGUGAAAGAGAGAAGUAAACCAUAGAAACACACGUUGUGGUAUAUUACCUGGUA, the figure is 0.198; as for GUCCUCUUUCACGUGCGCGUGAAAGAGAGAAGUAAACCAAAGAAACACACGUUGUGGUAUAUUACCUGGUA, 0.407; as for GUCCUCUUUCACGUGCGCGUGAAAGAGAGAAGGGAACCAGAGAAACACACGUUGAGGUAUAUUACCUGGUA, 0.11.
Take GUCCUCUUUCACGUGCGCGUGAAAGAGAGAAGGGAACCAGAGAAACACACGUUGGGGUAUAUUACCUGGUA: the self-cleavage stood at 0.0574.
Take GUCCUCUUUCACGUGCGCGUGAAAGAGAGAAGUAAACCAGAGAAACACACGUUGUGGUAUAUUACCUGAUA: the self-cleavage turned out to be 0.568.
Take GUCCUCUUUCACGUGCGCGUGAAAGAGAGAAGUAAACCAGAGAAACACACGUUGUGGUAUAUUACCUGCUA: the self-cleavage was found to be 0.402.
Consider GUCCUCUUUCACGUGCGCGUGAAAGAGAGAAGUAAACCAGAGAAACACACGUUGUGGUAUAUUGCCUGGUA, for which the self-cleavage is 0.625.
As for GUCCUCUUUCACGUGCGCGUGAAAGAGAGAAGUAAACCAGAGAAACACACGGUGUGGUAUAUUACCUGGUA, the figure is 1.09.
With GUCCUCUUUCACGUGCGCGUGAAAGAGAGAAGUAAACCAGAGUAACACACGUUGUGGUAUAUUACCUGGUA the figure was 0.18; with GUCCUCUUUCACGUGCGCGUGAAAGAGAGAAGUCAACCAGAGAACCACACGUUGUGGUAUAUUACCUGGUA, 0.0204.
With GUCCUCUUUCACGUGCGCGUGAAAGAGAGAAGUCAACCAGAGAAACACACGUUGUGGUAUGUUACCUGGUA, the self-cleavage was found to be 0.636.
Regarding GUCCUCUUUCACGUGCGCGUGAAAGAGAGAAGUAAACCAGAGAAACACACGUUGUGGUAUAUUACCUGGGA, the self-cleavage came out at 0.979.
For the variant GUCCUCUUUCACGUGCGCGUGAAAGAGAGAAGUAAACCAGAGAUACACACGUUGUGGUAUAUUACCUGGUA, the self-cleavage turned out to be 0.113.
Consider GUCCUCUUUCACGUGCGCGUGAAAGAGAGAAGUCAACCAGAGAAACACACGUUGUUGUAUAUUACCUGGUA, for which the self-cleavage was found to be 0.331.
On to GUCCUCUUUCACGUGCGCGUGAAAGAGAGAAGUCAACCAGAGAAACACACGUUGUAGUAUAUUACCUGGUA, for which the self-cleavage worked out at 0.737.
On to GUCCUCUUUCACGUGCGCGUGAAAGAGAGAAGUCAACCAGAGAAACACACGUUGUCGUAUAUUACCUGGUA, for which the self-cleavage is 0.37.
Consider GUCCUCUUUCACGUGCGCGUGAAAGAGAGAAGUAAAACAGAGAAACACACGUUGUGGUAUAUUACCUGGUA, for which the self-cleavage was 0.534.
As for GUCCUCUUUCACGUGCGCGUGAAAGAGAGAAGGGAACCAGAGAAACACACGUUGUGGGAUAUUACCUGGUA, the self-cleavage was determined as 0.155.
On to GUCCUCUUUCACGUGCGCGUGAAAGAGAGAAGUCAACCAGAGAAACACAAGUUGUGGUAUAUUACCUGGUA, for which the self-cleavage worked out at 1.1.
As to GUCCUCUUUCACGUGCGCGUGAAAGAGAGAAGUCAACCAGCGAAACACACGUUGUGGUAUAUUACCUGGUA, the self-cleavage worked out at 1.47.
GUCCUCUUUCACGUGCGCGUGAAAGAGAGAAGUCAACCAGGGAAACACACGUUGUGGUAUAUUACCUGGUA: the self-cleavage amounted to 1.31.
As to GUCCUCUUUCACGUGCGCGUGAAAGAGAGAAGUCAACCAGAGAAACACACGUUAUGGUAUAUUACCUGGUA, the self-cleavage is 1.2.
As for GUCCUCUUUCACGUGCGCGUGAAAGAGAGAAGUCAACCAGAGAAACACACGUUGUGGUAUAUUACCUGGUG, the figure is 1.66; as for GUCCUCUUUCACGUGCGCGUGAAAGAGAGAAGUAAACCAGAGAAACACAGGUUGUGGUAUAUUACCUGGUA, 0.481.
On to GUCCUCUUUCACGUGCGCGUGAAAGAGAGAAGUCAACCAGAGAGACACACGUUGUGGUAUAUUACCUGGUA, for which the self-cleavage came out at 0.264.
With GUCCUCUUUCACGUGCGCGUGAAAGAGAGAAGUCAACCAGAGAUACACACGUUGUGGUAUAUUACCUGGUA the figure was 0.119.
For GUCCUCUUUCACGUGCGCGUGAAAGAGAGAAGUAAACCAGAGAAACACACGUUGUGGUAUAUCACCUGGUA, the self-cleavage was 0.0965.
Consider GUCCUCUUUCACGUGCGCGUGAAAGAGAGAAGUAAACCAGAGAAACACACGUAGUGGUAUAUUACCUGGUA, for which the self-cleavage amounted to 1.46.
Take GUCCUCUUUCACGUGCGCGUGAAAGAGAGAAGUAAACCAGAGAAACACACGUCGUGGUAUAUUACCUGGUA: the self-cleavage is 1.13.
For GUCCUCUUUCACGUGCGCGUGAAAGAGAGAAGUAGACCAGAGAAACACACGUUGUGGUAUAUUACCUGGUA, the self-cleavage was 1.1.
Turning to GUCCUCUUUCACGUGCGCGUGAAAGAGAGAAGUACACCAGAGAAACACACGUUGUGGUAUAUUACCUGGUA, the self-cleavage was 1.43.
As for GUCCUCUUUCACGUGCGCGUGAAAGAGAGAAGUAAACCAGAGAAACACACGUUGUGGUAUAUUACCAGGUA, the figure is 0.194; as for GUCCUCUUUCACGUGCGCGUGAAAGAGAGAAGUAAACCAGAGAAACACACGUUGUGGUAUAUUAUCUGGUA, 0.673; as for GUCCUCUUUCACGUGCGCGUGAAAGAGAGAAGUAAACCAGAUAAACACACGUUGUGGUAUAUUACCUGGUA, 0.406.
Turning to GUCCUCUUUCACGUGCGCGUGAAAGAGAGAAGUCAACCACAGAAACACACGUUGUGGUAUAUUACCUGGUA, the self-cleavage was 0.188.
As for GUCCUCUUUCACGUGCGCGUGAAAGAGAGAAGUCAUCCAGAGAAACACACGUUGUGGUAUAUUACCUGGUA, the self-cleavage came out at 0.938.
Take GUCCUCUUUCACGUGCGCGUGAAAGAGAGAAGUCACCCAGAGAAACACACGUUGUGGUAUAUUACCUGGUA: the self-cleavage turned out to be 1.25.
As for GUCCUCUUUCACGUGCGCGUGAAAGAGAGAAGUAAACCAGAGAAACAGACGUUGUGGUAUAUUACCUGGUA, the self-cleavage is 0.17.
Turning to GUCCUCUUUCACGUGCGCGUGAAAGAGAGAAGUAAACCAGAGAAACAAACGUUGUGGUAUAUUACCUGGUA, the self-cleavage came to 0.122.
As to GUCCUCUUUCACGUGCGCGUGAAAGAGAGAAGUCAACCAGAGAAACACACGUUGUGGUAUAUUACGUGGUA, the self-cleavage was 0.627.
Turning to GUCCUCUUUCACGUGCGCGUGAAAGAGAGAAGUCAACCAGAGAAACACACGUUGUGGUAUAUUACUUGGUA, the self-cleavage amounted to 1.29.
Regarding GUCCUCUUUCACGUGCGCGUGAAAGAGAGAAGUAAACCAGAGAAACACACGUUCUGGUAUAUUACCUGGUA, the self-cleavage was found to be 0.302.
Turning to GUCCUCUUUCACGUGCGCGUGAAAGAGAGAAGUAAACCAGAGAAACACACGUUAUGGUAUAUUACCUGGUA, the self-cleavage was determined as 0.745.
With GUCCUCUUUCACGUGCGCGUGAAAGAGAGAAGUAAACCAGAGAAACACACGUUGUGGUAUAAUACCUGGUA the figure was 0.315; with GUCCUCUUUCACGUGCGCGUGAAAGAGAGAAGUAAACCAGAGAAACACACGUUGUGGUAUUUUACCUGGUA, 0.218; with GUCCUCUUUCACGUGCGCGUGAAAGAGAGAAGUAAACCAGAGAAACACACGUUGUGGUAUAUUACCUUGUA, 0.325.

Values taken from the RNAGym collection of RNA variant scans (doi:10.7554/elife.80360).
